In article PMC3799448 (Nucleic Acids Research, 2013):
Blank lines part the entries; values can stand above or below the binder they belong to.

Tests used:
[1] = target: T1, RAD51 (wild-type human RAD51 DNA strand exchange protein) (human, UniProt Q06609 1-339); experiment: fluorescence polarisation
T1 sequence: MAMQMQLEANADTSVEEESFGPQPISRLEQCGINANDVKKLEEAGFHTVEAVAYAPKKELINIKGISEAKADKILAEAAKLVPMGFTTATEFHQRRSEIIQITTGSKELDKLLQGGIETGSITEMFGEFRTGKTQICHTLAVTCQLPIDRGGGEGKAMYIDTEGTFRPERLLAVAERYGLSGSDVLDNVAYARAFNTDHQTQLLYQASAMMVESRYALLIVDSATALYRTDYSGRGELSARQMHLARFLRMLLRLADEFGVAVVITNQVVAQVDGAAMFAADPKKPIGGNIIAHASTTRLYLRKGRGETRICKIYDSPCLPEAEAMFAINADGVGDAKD

[2] = target: RAD51 E237A (human, UniProt Q06609 1-339, E237A); experiment: FRET
[3] = target: RAD51 E59A (human, UniProt Q06609 1-339, E59A); experiment: FRET
[4] = target: RAD51 E42A (human, UniProt Q06609 1-339, E42A); experiment: FRET
[5] = target: RAD51 wild type (human, UniProt Q06609 1-339); experiment: FRET

- Kd [1]: 34 ± 5 nM
B1: FITC-BRC4 peptide (BRC4 repeat of BRCA2) (peptide)
peptide: KEPTLLGFHTASGKKVKIAKESLDKVKNLFDEKEQ
modifications: FITC (fluorescein) on the N-terminus, as printed: FITC-KEPT...

B2: dT60 (poly(dT)-60) (ssDNA)
DNA: TTTTTTTTTTTTTTTTTTTTTTTTTTTTTTTTTTTTTTTTTTTTTTTTTTTTTTTTTTTT
- binding result [2]: binds
- binding result [3]: binds
- binding result [4]: binds
- binding result [5]: binds
